From patent publication US20020115167

Target: T1, Dishevelled (Dsh) protein, Drosophila, P51140
T1 chain: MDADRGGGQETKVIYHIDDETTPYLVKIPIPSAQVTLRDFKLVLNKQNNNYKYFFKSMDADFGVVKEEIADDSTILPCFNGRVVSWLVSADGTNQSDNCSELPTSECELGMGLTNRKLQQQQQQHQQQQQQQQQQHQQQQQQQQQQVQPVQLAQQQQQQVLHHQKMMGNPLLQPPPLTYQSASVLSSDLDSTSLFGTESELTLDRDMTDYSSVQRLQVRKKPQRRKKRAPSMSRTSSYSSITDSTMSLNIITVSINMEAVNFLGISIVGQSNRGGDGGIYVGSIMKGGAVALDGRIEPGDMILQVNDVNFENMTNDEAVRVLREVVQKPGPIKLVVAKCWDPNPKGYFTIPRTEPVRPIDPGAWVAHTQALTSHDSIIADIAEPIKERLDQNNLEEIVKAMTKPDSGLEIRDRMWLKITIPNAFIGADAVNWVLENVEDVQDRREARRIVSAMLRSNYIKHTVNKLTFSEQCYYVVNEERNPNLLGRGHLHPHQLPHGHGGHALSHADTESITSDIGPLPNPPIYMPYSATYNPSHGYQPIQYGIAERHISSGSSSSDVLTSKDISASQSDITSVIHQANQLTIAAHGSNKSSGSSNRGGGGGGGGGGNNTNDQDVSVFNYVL

B1: Drosophila PAR-1 (dPAR-1), the Dishevelled-associated kinase (protein)
chain: MSTAMRTTLQSVPEALPADSVSNGTASNVAAPAAPVSSATNAVPPLAAVSSTTATYATNSISTSSHSVKDQQQQQQQQQHDSANANIVSLPPTTTPVANTNTMMPIVTSSNSATSNSTAATPTPASGAAATGGVGSVSQGPATVSASAANTNHSHQHSHQHHHHVANNMTTDGARLSSNNSAVVASSAINHHHHHTPGSGVAPTVNKNVLSTHSAHPSAIKQRTSSAKGSPNMQMRSSAPMRWRATEEHIGKYKLIKTIGKGNFAKVKLAKHLPTGKEVAIKIIDKTQLNPGSLQKLFREVRIMKMLDHPNIVKLFQVIETEKTLYLIMEYASGGEVFDYLVLHGRMKEKEARVKFRQIVSAVQYCHQKRIIHRDLKAENLLLDSELNIKIADFGFSNEFTPGSKLDTFCGSPPYAAPELFQGKKYDGPEVDVWSLGVILYTLVSGSLPFDGSTLRELRERVLRGKYRIPFYMSTDCENLLRKFLVLNPAKRASLETIMGDKWMNMGFEEDELKPYIEPKADLADPKRIEALVAMGYNRSEIEASLSQVRYDDVFATYLLLGRKSTDPESDGSRSGSSLSLRNISGNDAGANAGSASVQSPTHRGVHRSISASSTKPSRRASSGAETLRVGPTNAAATVAAATGAVGAVNPSNNYNAAGSAADRASVGSNFKRQNTIDSATIKENTARLAAQNQRPASATQKMLTTADTTLNSPAKPRTATKYDPTNGNRTVSGTSGIIPRRSTTLYEKTSSTEKTNVIPAETKMASAVKSSRHFPRNVPSRSTFHSGQTRARNNTALEYSGTSGASGDSSHPGRMSFFSKLSSRFSKRPNQ
in-gel in vitro kinase assay: these bands phosphorylated the Dsh substrate impregnated in the gel
